Assay results reported in the FLAb antibody collection (doi:10.7554/elife.23156).

B1: scFv; the commonest letter at each place (parent)
chain 1: EVKLDETGGGLVQPGRPMKLSCVASGFTFSDYWMNWVRQSPEKGLEWVAQIRNKPYNYETYYSDSVKGRFTISRDDSKSSVYLQMNNLRVEDMGIYYCTGSYYGMDYWGQGTSVTVS
chain 2: DVVMTQTPLSLPVSLGDQASISCRSSQSLVHSNGNTYLRWYLQKPGQSPKVLIYKVSNRFSGVPDRFSGSGSGTDFTLKISRVEAEDLGVYFCSQSTHVPWTFGGGTKLEIK

Assays:
fluorescein = variants of: B1; experiment: Kd (Tite-Seq); settings: with fluorescein; format: scFv 4-4-20, heavy + light
[1] = variants of: B1; experiment: yeast surface expression (ratio to wild type); higher = more expressed; settings: format: scFv 4-4-20, heavy + light

Variant | Kd (fluorescein) [µM] | yeast surface expression [1]
chain 1 S101D G104H D106A | ≥ 10 | 0.353
chain 1 S30K V37A | 0.0272 | 0.745
chain 1 S30P V37Y | 0.0729 | 1.25
chain 1 S30N W33D | ≥ 10 | 1.05
chain 1 S30N W33M | ≥ 10 | 0.879
chain 1 S30M V37M | 0.000504 | 0.887
chain 1 S30M V37E | 0.0107 | 0.721
chain 1 S30R Y32W | ≥ 10 | 0.811
chain 1 S101D W108Y | ≥ 10 | 0.608
chain 1 S101D W108A | ≥ 10 | 0.443
chain 1 S30W Y32G | 1.55 | 0.706
chain 1 S30P N35L | ≥ 10 | 0.652
chain 1 S30P N35V | ≥ 10 | 0.636
chain 1 S101E W108H | ≥ 10 | 0.374
chain 1 S101E W108K | ≥ 10 | 0.375
chain 1 S101C G109D | ≥ 10 | 0.328
chain 1 S30T V37C | 0.000454 | 0.826
chain 1 S101F G104I | ≥ 10 | 0.187
chain 1 S101G M105E D106R | ≥ 10 | 0.604
chain 1 S101G G104Y | ≥ 10 | 0.901
chain 1 S30P W33Q W36F | ≥ 10 | 0.838
chain 1 S101D D106R W108I | 0.00251 | 0.452
chain 1 S30I W36V V37Q | ≥ 10 | 0.525
chain 1 S101H Y107R W108C | ≥ 10 | 0.22
chain 1 S30Q D31H Y32N | ≥ 10 | 0.857

Variant | Kd (fluorescein) [µM] | yeast surface expression [1]
chain 1 S101C D106I G109A | ≥ 10 | 0.168
chain 1 S101C Y107G | ≥ 10 | 0.245
chain 1 S30Y V37H | ≥ 10 | 0.57
chain 1 S30V D31V W36E | ≥ 10 | 1.33
chain 1 S101A Y103E | 0.00966 | 1.23
chain 1 S30T N35Q | ≥ 10 | 0.831
chain 1 S30L W33E | ≥ 10 | 0.645
chain 1 S30Y D31T | 0.00265 | 0.428
chain 1 S30N W36C | ≥ 10 | 0.445
chain 1 S30N W36D | ≥ 10 | 0.393
chain 1 S101A Y102P | ≥ 10 | 0.793
chain 1 S101D D106N | ≥ 10 | 0.813
chain 1 S30I M34N | ≥ 10 | 0.512
chain 1 S30I M34P | ≥ 10 | 0.36
chain 1 S101D Y107I | ≥ 10 | 1.02
chain 1 S101D Y107E | ≥ 10 | 1.03
chain 1 S101G Y107K | ≥ 10 | 0.907
chain 1 S30R M34S | 0.11 | 0.717
chain 1 S30R M34C | 0.00444 | 0.668
chain 1 S30R M34D | ≥ 10 | 0.775
chain 1 S101I W108E | ≥ 10 | 0.21
chain 1 S101I G104Q | ≥ 10 | 0.397
chain 1 S101I G104T | ≥ 10 | 0.4
chain 1 S101I G104K | ≥ 10 | 0.482

The next lines start with results.

Kd (fluorescein) [µM] | Variant | yeast surface expression [1]
≥ 10 | chain 1 S30I Y32T | 0.909
0.000939 | chain 1 S30P V37S | 0.74
≥ 10 | chain 1 S101D G109I | 0.22
≥ 10 | chain 1 S101D G109H | 0.247
≥ 10 | chain 1 S30V Y32D | 0.745
0.0146 | chain 1 S30N Y32S | 1.14
≥ 10 | chain 1 S30R Y32Q | 1.13
≥ 10 | chain 1 S101D W108N | 0.445
≥ 10 | chain 1 S30M N35M | 0.654
5.66 | chain 1 S30W Y32C | 0.838
≥ 10 | chain 1 S30W Y32Q | 0.646
0.00468 | chain 1 S30P N35G | 1.19
≥ 10 | chain 1 S30K Y32E | 0.857
≥ 10 | chain 1 S30Q D31E N35K | 2.59
≥ 10 | chain 1 S30I N35P | 0.35
≥ 10 | chain 1 S101E W108G | 0.368
≥ 10 | chain 1 S101E G104S | 0.804
≥ 10 | chain 1 S101C G109A | 0.363
≥ 10 | chain 1 S101C G109N | 0.251
≥ 10 | chain 1 S30I D31T W36P | 0.928
≥ 10 | chain 1 S30T V37W | 0.671
0.0592 | chain 1 S30T V37P | –
≥ 10 | chain 1 S101F G104Q | 0.241

Kd (fluorescein) [µM] | Variant | yeast surface expression [1]
≥ 10 | chain 1 S101F G104L | 0.778
5.66 | chain 1 S30M D31F | 0.611
0.00265 | chain 1 S30M D31S | 0.671
≥ 10 | chain 1 S30R N35R | 0.535
≥ 10 | chain 1 S30R N35F | 0.413
≥ 10 | chain 1 S30R N35V | 0.567
≥ 10 | chain 1 S101H Y102R | 0.96
≥ 10 | chain 1 S30H N35D | 0.828
≥ 10 | chain 1 S30H N35E | 0.504
≥ 10 | chain 1 S30P W33E | 1.01
≥ 10 | chain 1 S30P W33P | 0.628
≥ 10 | chain 1 S101C Y107S | 0.457
≥ 10 | chain 1 S101C Y107C | 0.493
≥ 10 | chain 1 S101C Y107T | 0.62
≥ 10 | chain 1 S30M M34P | 2.67
0.00299 | chain 1 S30M M34L | 0.94
≥ 10 | chain 1 S30V W33A | 0.748
≥ 10 | chain 1 S101C M105I | 0.826
≥ 10 | chain 1 S30W W36D | 0.104
≥ 10 | chain 1 S30L W33D | 0.844
≥ 10 | chain 1 S30L W33I | 0.639
≥ 10 | chain 1 S101C G104C | 0.33
≥ 10 | chain 1 S30N W36N | 0.265

Kd (fluorescein) [µM] | Variant | yeast surface expression [1]
≥ 10 | chain 1 S101E M105V D106P | 0.387
≥ 10 | chain 1 S101F Y102A | 0.623
≥ 10 | chain 1 S101H W108C | 0.28
≥ 10 | chain 1 S101H W108Y | 0.408
≥ 10 | chain 1 S101F M105G | 0.559
≥ 10 | chain 1 S101F M105L | 0.483
≥ 10 | chain 1 S101F M105I | 0.522
0.105 | chain 1 S30R W33F M34V | 0.767
≥ 10 | chain 1 S101F W108K | 0.217
≥ 10 | chain 1 S101F W108F | 0.199
≥ 10 | chain 1 S101F W108E | 0.216
≥ 10 | chain 1 S101D D106K | 0.435
0.0113 | chain 1 S30I M34V | 0.753
≥ 10 | chain 1 S101D Y107S | 0.672
≥ 10 | chain 1 S30Y M34H | 0.38
0.0534 | chain 1 S30Y M34A | 0.483
≥ 10 | chain 1 S30Y W36A | 0.404
≥ 10 | chain 1 S30Y W36N | 0.436
≥ 10 | chain 1 S101A Y107E W108G | 0.353
≥ 10 | chain 1 S101C G104V D106F | 0.361
≥ 10 | chain 1 S30P D31A Y32H | 0.725
